Laboratory results from patent publication US20260055205A1 (published 2026).

Target: T1, human PSMA (human, UniProt Q04609 44-750, limits assumed)
T1 construct: also called huPSMA; hPSMA
Assay: binding screen

T1 sequence (Q04609 44-750 limits assumed): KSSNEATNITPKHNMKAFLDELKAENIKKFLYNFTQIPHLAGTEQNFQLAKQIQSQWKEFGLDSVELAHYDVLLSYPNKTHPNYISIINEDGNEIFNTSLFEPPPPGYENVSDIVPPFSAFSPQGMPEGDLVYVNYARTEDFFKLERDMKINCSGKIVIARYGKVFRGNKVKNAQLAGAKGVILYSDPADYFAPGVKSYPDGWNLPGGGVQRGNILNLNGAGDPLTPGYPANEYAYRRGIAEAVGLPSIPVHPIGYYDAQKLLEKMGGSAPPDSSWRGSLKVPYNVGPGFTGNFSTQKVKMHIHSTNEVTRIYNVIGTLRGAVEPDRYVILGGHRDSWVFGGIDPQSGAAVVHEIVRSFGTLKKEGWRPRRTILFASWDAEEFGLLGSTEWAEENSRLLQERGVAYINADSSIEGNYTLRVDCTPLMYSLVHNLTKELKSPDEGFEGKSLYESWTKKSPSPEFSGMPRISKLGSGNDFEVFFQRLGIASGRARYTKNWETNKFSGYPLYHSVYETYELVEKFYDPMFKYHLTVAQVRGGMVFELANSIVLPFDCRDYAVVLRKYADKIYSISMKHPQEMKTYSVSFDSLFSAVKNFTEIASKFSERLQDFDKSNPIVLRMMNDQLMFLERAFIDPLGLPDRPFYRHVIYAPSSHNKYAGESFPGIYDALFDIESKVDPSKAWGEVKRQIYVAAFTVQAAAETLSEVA

Binder | binding result | Kd
PSMA.319 (bispecific antibody, V domains shown, TCE with CD3.23; also called AC3721) VH: QVQLVESGGGVVQPGRSLRLSCAASGRTFGIYVMGWFRQAPGKEREFVGAISWSGSNRKVSDSVKGRFTISRDNSKNTLYLQMNSLRAEDTAVNYCAGSNKLYGRTWYDFNESDYWGQGTQVTVSS | no binding | –
PSMA.349 (bispecific antibody, V domains shown, TCE with CD3.23; also called AC3751) VH: QVQLVESGGGVVQPGRSLRLSCAASGRTFGIYVWGWFRQAPGKEREFVGAMSWSGSNRKVSDSVKGRFTISRDNSKNTLYLQMNSLRAEDTAVYYCAASNKDYGRTWYDFNESDYWGQGTQVTVSS | – | 18 nM
PSMA.350 (bispecific antibody, V domains shown, TCE with CD3.23; also called AC3752) VH: QVQLVESGGGVVQPGRSLRLSCAASGRTFGIYVWGWFRQAPGKEREFVGAMSWSGSNRKVSDSVKGRFTISRDNSKNTLYLQMNSLRAEDTAVYYCAASNKEYGRTWYDFNESDYWGQGTQVTVSS | – | 7.4 nM
PSMA.346 (bispecific antibody, V domains shown, TCE with CD3.23; also called AC3748) VH: QVQLVESGGGVVQPGRSLRLSCAASGRTFGIYVWGWFRQAPGKEREFVGAMSWSGSNRKVSDSVKGRFTISRDNSKNTLYLQMNSLRAEDTAVDYCAASNKLYGRTWYDFNESDYWGQGTQVTVSS | no binding | –
PSMA.340 (bispecific antibody, V domains shown, TCE with CD3.23; also called AC3742) VH: QVQLVESGGGVVQPGRSLRLSCAASGRTFGIYVMGWFRQAPGKEREFVGAISWSGSNRKVSDSVKGRFTISRDNSKNTLYLQMNSLRAEDTAVGFCAGSNKLYGRTWYDFNESDYWGQGTQVTVSS | no binding | –
PSMA.339 (bispecific antibody, V domains shown, TCE with CD3.23; also called AC3741) VH: QVQLVESGGGVVQPGRSLRLSCAASGRTFGIYVMGWFRQAPGKEREFVGAISWSGSNRKVSDSVKGRFTISRDNSKNTLYLQMNSLRAEDTAVNFCAGSNKLYGRTWYDFNESDYWGQGTQVTVSS | no binding | –
PSMA.347 (bispecific antibody, V domains shown, TCE with CD3.23; also called AC3749) VH: QVQLVESGGGVVQPGRSLRLSCAASGRTFGIYVWGWFRQAPGKEREFVGAMSWSGSNRKVSDSVKGRFTISRDNSKNTLYLQMNSLRAEDTAVYYCGASNKLYGRTWYDFNESDYWGQGTQVTVSS | – | 7.3 nM
PSMA.345 (bispecific antibody, V domains shown, TCE with CD3.23; also called AC3747) VH: QVQLVESGGGVVQPGRSLRLSCAASGRTFGIYVWGWFRQAPGKEREFVGAMSWSGSNRKVSDSVKGRFTISRDNSKNTLYLQMNSLRAEDTAVYYCGGSNKLYGRTWYDFNESDYWGQGTQVTVSS | – | 6.1 nM
PSMA.334 (bispecific antibody, V domains shown, TCE with CD3.23; also called AC3736) VH: QVQLVESGGGVVQPGRSLRLSCAASGRTFGIYVMGWFRQAPGKEREFVGAISWSGSNRKVSDSVKGRFTISRDNSKNTLYLQMNSLRAEDTAVYFCAASNKDYGRTWYDFNESDYWGQGTQVTVSS | – | 70.6 nM
PSMA.337 (bispecific antibody, V domains shown, TCE with CD3.23; also called AC3739) VH: QVQLVESGGGVVQPGRSLRLSCAASGRTFGIYVMGWFRQAPGKEREFVGAISWSGSNRKVSDSVKGRFTISRDNSKNTLYLQMNSLRAEDTAVAFCAGSNKLYGRTWYDFNESDYWGQGTQVTVSS | no binding | –
PSMA.323 (bispecific antibody, V domains shown, TCE with CD3.23; also called AC3725) VH: QVQLVESGGGVVQPGRSLRLSCAASGRTFGIYVMGWFRQAPGKEREFVGAISWSGSNRKVSDSVKGRFTISRDNSKNTLYLQMNSLRAEDTAVTYCAGSNKLYGRTWYDFNESDYWGQGTQVTVSS | no binding | –
PSMA.324 (bispecific antibody, V domains shown, TCE with CD3.23; also called AC3726) VH: QVQLVESGGGVVQPGRSLRLSCAASGRTFGIYVMGWFRQAPGKEREFVGAISWSGSNRKVSDSVKGRFTISRDNSKNTLYLQMNSLRAEDTAVAFCAASNKLYGRTWYDFNESDYWGQGTQVTVSS | no binding | –
PSMA.332 (bispecific antibody, V domains shown, TCE with CD3.23; also called AC3734) VH: QVQLVESGGGVVQPGRSLRLSCAASGRTFGIYVMGWFRQAPGKEREFVGAISWSGSNRKVSDSVKGRFTISRDNSKNTLYLQMNSLRAEDTAVYFCAGSNKLYGRTWYDFNESDYWGQGTQVTVSS | – | 24.1 nM
PSMA.330 (bispecific antibody, V domains shown, TCE with CD3.23; also called AC3732) VH: QVQLVESGGGVVQPGRSLRLSCAASGRTFGIYVMGWFRQAPGKEREFVGAISWSGSNRKVSDSVKGRFTISRDNSKNTLYLQMNSLRAEDTAVSFCAASNKLYGRTWYDFNESDYWGQGTQVTVSS | no binding | –
PSMA.342 (bispecific antibody, V domains shown, TCE with CD3.23; also called AC3744) VH: QVQLVESGGGVVQPGRSLRLSCAASGRTFGIYVMGWFRQAPGKEREFVGAISWSGSNRKVSDSVKGRFTISRDNSKNTLYLQMNSLRAEDTAVSFCAGSNKLYGRTWYDFNESDYWGQGTQVTVSS | no binding | –
PSMA.325 (bispecific antibody, V domains shown, TCE with CD3.23; also called AC3727) VH: QVQLVESGGGVVQPGRSLRLSCAASGRTFGIYVMGWFRQAPGKEREFVGAISWSGSNRKVSDSVKGRFTISRDNSKNTLYLQMNSLRAEDTAVRFCAASNKLYGRTWYDFNESDYWGQGTQVTVSS | no binding | –
PSMA.321 (bispecific antibody, V domains shown, TCE with CD3.23; also called AC3723) VH: QVQLVESGGGVVQPGRSLRLSCAASGRTFGIYVMGWFRQAPGKEREFVGAISWSGSNRKVSDSVKGRFTISRDNSKNTLYLQMNSLRAEDTAVKYCAGSNKLYGRTWYDFNESDYWGQGTQVTVSS | no binding | –
PSMA.320 (bispecific antibody, V domains shown, TCE with CD3.23; also called AC3722) VH: QVQLVESGGGVVQPGRSLRLSCAASGRTFGIYVMGWFRQAPGKEREFVGAISWSGSNRKVSDSVKGRFTISRDNSKNTLYLQMNSLRAEDTAVGYCAGSNKLYGRTWYDFNESDYWGQGTQVTVSS | no binding | –

Further lines, results first:

binding result | Kd | Binder
– | 24.8 nM | PSMA.335 (bispecific antibody, V domains shown, TCE with CD3.23; also called AC3737) VH: QVQLVESGGGVVQPGRSLRLSCAASGRTFGIYVMGWFRQAPGKEREFVGAISWSGSNRKVSDSVKGRFTISRDNSKNTLYLQMNSLRAEDTAVYFCAASNKEYGRTWYDFNESDYWGQGTQVTVSS
no binding | – | PSMA.338 (bispecific antibody, V domains shown, TCE with CD3.23; also called AC3740) VH: QVQLVESGGGVVQPGRSLRLSCAASGRTFGIYVMGWFRQAPGKEREFVGAISWSGSNRKVSDSVKGRFTISRDNSKNTLYLQMNSLRAEDTAVRFCAGSNKLYGRTWYDFNESDYWGQGTQVTVSS
– | 12.1 nM | PSMA.331 (bispecific antibody, V domains shown, TCE with CD3.23; also called AC3733) VH: QVQLVESGGGVVQPGRSLRLSCAASGRTFGIYVMGWFRQAPGKEREFVGAISWSGSNRKVSDSVKGRFTISRDNSKNTLYLQMNSLRAEDTAVYFCGASNKLYGRTWYDFNESDYWGQGTQVTVSS
no binding | – | PSMA.329 (bispecific antibody, V domains shown, TCE with CD3.23; also called AC3731) VH: QVQLVESGGGVVQPGRSLRLSCAASGRTFGIYVMGWFRQAPGKEREFVGAISWSGSNRKVSDSVKGRFTISRDNSKNTLYLQMNSLRAEDTAVKFCAASNKLYGRTWYDFNESDYWGQGTQVTVSS
no binding | – | PSMA.343 (bispecific antibody, V domains shown, TCE with CD3.23; also called AC3745) VH: QVQLVESGGGVVQPGRSLRLSCAASGRTFGIYVMGWFRQAPGKEREFVGAISWSGSNRKVSDSVKGRFTISRDNSKNTLYLQMNSLRAEDTAVTFCAGSNKLYGRTWYDFNESDYWGQGTQVTVSS
– | 129 nM | PSMA.336 (bispecific antibody, V domains shown, TCE with CD3.23; also called AC3738) VH: QVQLVESGGGVVQPGRSLRLSCAASGRTFGIYVMGWFRQAPGKEREFVGAISWSGSNRKVSDSVKGRFTISRDNSKNTLYLQMNSLRAEDTAVYFCAASNKGYGRTWYDFNESDYWGQGTQVTVSS
no binding | – | PSMA.322 (bispecific antibody, V domains shown, TCE with CD3.23; also called AC3724) VH: QVQLVESGGGVVQPGRSLRLSCAASGRTFGIYVMGWFRQAPGKEREFVGAISWSGSNRKVSDSVKGRFTISRDNSKNTLYLQMNSLRAEDTAVSYCAGSNKLYGRTWYDFNESDYWGQGTQVTVSS
– | 32.6 nM | PSMA.351 (bispecific antibody, V domains shown, TCE with CD3.23; also called AC3753) VH: QVQLVESGGGVVQPGRSLRLSCAASGRTFGIYVWGWFRQAPGKEREFVGAMSWSGSNRKVSDSVKGRFTISRDNSKNTLYLQMNSLRAEDTAVYYCAASNKGYGRTWYDFNESDYWGQGTQVTVSS
no binding | – | PSMA.333 (bispecific antibody, V domains shown, TCE with CD3.23; also called AC3735) VH: QVQLVESGGGVVQPGRSLRLSCAASGRTFGIYVMGWFRQAPGKEREFVGAISWSGSNRKVSDSVKGRFTISRDNSKNTLYLQMNSLRAEDTAVYFCAASNKRYGRTWYDFNESDYWGQGTQVTVSS
no binding | – | PSMA.341 (bispecific antibody, V domains shown, TCE with CD3.23; also called AC3743) VH: QVQLVESGGGVVQPGRSLRLSCAASGRTFGIYVMGWFRQAPGKEREFVGAISWSGSNRKVSDSVKGRFTISRDNSKNTLYLQMNSLRAEDTAVKFCAGSNKLYGRTWYDFNESDYWGQGTQVTVSS
no binding | – | PSMA.352 (bispecific antibody, V domains shown, TCE with CD3.23; also called AC3754) VH: QVQLVESGGGVVQPGRSLRLSCAASGRTFGIYVWGWFRQAPGKEREFVGAMSWSGSNRKVSDSVKGRFTISRDNSKNTLYLQMNSLRAEDTAVDFCAASNKLYGRTWYDFNESDYWGQGTQVTVSS
no binding | – | PSMA.327 (bispecific antibody, V domains shown, TCE with CD3.23; also called AC3729) VH: QVQLVESGGGVVQPGRSLRLSCAASGRTFGIYVMGWFRQAPGKEREFVGAISWSGSNRKVSDSVKGRFTISRDNSKNTLYLQMNSLRAEDTAVDFCAASNKLYGRTWYDFNESDYWGQGTQVTVSS
no binding | – | PSMA.326 (bispecific antibody, V domains shown, TCE with CD3.23; also called AC3728) VH: QVQLVESGGGVVQPGRSLRLSCAASGRTFGIYVMGWFRQAPGKEREFVGAISWSGSNRKVSDSVKGRFTISRDNSKNTLYLQMNSLRAEDTAVNFCAASNKLYGRTWYDFNESDYWGQGTQVTVSS
no binding | – | PSMA.328 (bispecific antibody, V domains shown, TCE with CD3.23; also called AC3730) VH: QVQLVESGGGVVQPGRSLRLSCAASGRTFGIYVMGWFRQAPGKEREFVGAISWSGSNRKVSDSVKGRFTISRDNSKNTLYLQMNSLRAEDTAVGFCAASNKLYGRTWYDFNESDYWGQGTQVTVSS
